“And” between values parts separate entries of the source, which are not always exact repeats. Equal values may be shown once. Each block holds one molecule with its values, some of them ahead of it.
Key:
[1] = target: Synaptobrevin-2 variant lacking the transmembrane helix, Syb(1-96) (UniProt P63045); assay: native MS; SNAP25 and Synaptobrevin-2 mixed 1:2 and 2:1; settings: scale: SNAP25 per Synaptobrevin-2
[2] = target: SNAP25(CtoS), cysteine-free variant of SNAP25 (UniProt P60881); assay: native MS; 10 µM of one protein alone, 200 mM ammonium acetate
[3] = target: Synaptobrevin-2 variant lacking the transmembrane helix, Syb(1-96) (UniProt P63045); assay: native MS; SNAP25 and Synaptobrevin-2 mixed 1:1; 200 mM ammonium acetate; settings: scale: SNAP25 per Synaptobrevin-2
[4] = target: SNAP25(CtoS), cysteine-free variant of SNAP25 (UniProt P60881); assay: cross-linking; 10 µM of one protein alone, 0-1.5 mM BS3, 1 h at 25 °C; gel electrophoresis, Coomassie staining and western blot
[5] = target: pre-assembled binary SNAP25:Synaptobrevin-2 complex (2:1) (UniProt P60881); assay: native MS; SNAP25 and Synaptobrevin-2 mixed 1:1; 200 mM ammonium acetate
[6] = target: T1, full-length Complexin-1, P63041; assay: native MS; 10 µM of one protein alone, 200 mM ammonium acetate; settings: remark: other sources report otherwise
T1 chain: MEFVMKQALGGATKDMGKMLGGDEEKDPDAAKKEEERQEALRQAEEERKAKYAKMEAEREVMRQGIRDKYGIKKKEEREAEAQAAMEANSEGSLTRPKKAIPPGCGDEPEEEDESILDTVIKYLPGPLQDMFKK

Sequence of UniProt P63045 (P63045 1-96, change not shown): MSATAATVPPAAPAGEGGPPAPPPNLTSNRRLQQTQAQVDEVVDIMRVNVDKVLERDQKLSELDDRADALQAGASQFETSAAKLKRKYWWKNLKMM

Molecule: pre-assembled binary SNAP25:Synaptobrevin-2 complex (2:1) (from UniProt P60881 1-206; P63045 1-96)
stoichiometry N [5]: 2

B1: full-length Complexin-1, P63041 1-134 (natural protein)
chain: MEFVMKQALGGATKDMGKMLGGDEEKDPDAAKKEEERQEALRQAEEERKAKYAKMEAEREVMRQGIRDKYGIKKKEEREAEAQAAMEANSEGSLTRPKKAIPPGCGDEPEEEDESILDTVIKYLPGPLQDMFKK
stoichiometry N [6]: 2 and 3

Next, values leading:

stoichiometry N [1]: 2
stoichiometry N [2]: 2 and 3
stoichiometry N [3]: 2
Molecule: SNAP25(CtoS), cysteine-free variant of SNAP25 (from UniProt P60881 1-206) (natural protein)

stoichiometry N [4]: < 5
Molecule: SNAP25(CtoS), cysteine-free variant of SNAP25 (from UniProt P60881 1-206)
